Data reported in article PMC3925968, “Single molecule FRET reveals pore size and opening mechanism of a mechano-sensitive ion channel” (eLife, 2014).
Residue numbers refer to the chain shown, from its start.

B1: E. coli MscL (EcoMscL) M42C (natural protein, UniProt P0A742 1-136, looked up)
chain: MSIIKEFREFAMRGNVVDLAVGVIIGAAFGKIVSSLVADIICPPLGLLIGGIDFKQFAVTLRDAQGDIPAVVMHYGVFIQNVFDFLIVAFAIFMAIKLINKLNRKKEEPAAAPAPTKEEVLLTEIRDLLKEQNNRS
modifications: Alexa Fluor 488 and/or Alexa Fluor 568 maleimide on the introduced cysteine (stochastic labelling)
notes: Mechanosensitive channel of large conductance MscL, Escherichia coli, single cysteine mutant on TM1; The MscL gene was cloned into pQE-32 as a BamHI-SalI fragment; 5% labeled channels were mixed with 95% unlabeled ones for reconstitution; also called mechanosensitive channel of large conductance; source: E. coli M15, purified from DDM solubilized membranes (TALON, FPLC Superdex 200), …
B2: E. coli MscL (EcoMscL) A27C (natural protein, UniProt P0A742 1-136, looked up)
chain: B1 chain with A27C, C42M
modifications: Alexa Fluor 488 and/or Alexa Fluor 568 maleimide on the introduced cysteine (stochastic labelling)
notes: Mechanosensitive channel of large conductance MscL, Escherichia coli, single cysteine mutant on TM1; Same construct as m1 apart from the cysteine position; Pentamer on cited work; some hexamers not excluded; source: E. coli M15, purified from DDM solubilized membranes (TALON, FPLC Superdex 200), reconstituted into liposomes; not shown: His6, N-terminal, kept
B3: E. coli MscL (EcoMscL) I25C (natural protein, UniProt P0A742 1-136, looked up)
chain: B1 chain with I25C, C42M
modifications: Alexa Fluor 488 and/or Alexa Fluor 568 maleimide on the introduced cysteine (stochastic labelling)
notes: Mechanosensitive channel of large conductance MscL, Escherichia coli, single cysteine mutant on TM1 near the pore constriction; Same construct as m1 apart from the cysteine position; Pentamer on cited work; some hexamers not excluded; source: E. coli M15, purified from DDM solubilized membranes (TALON, FPLC Superdex 200), reconstituted into liposomes; not shown: His6, N-terminal, kept
B4: E. coli MscL (EcoMscL) Y75C (natural protein, UniProt P0A742 1-136, looked up)
chain: B1 chain with C42M, Y75C
modifications: Alexa Fluor 488 and/or Alexa Fluor 568 maleimide on the introduced cysteine (stochastic labelling)
notes: Mechanosensitive channel of large conductance MscL, Escherichia coli, single cysteine mutant on TM2; Same construct as m1 apart from the cysteine position; Pentamer on cited work; some hexamers not excluded; source: E. coli M15, purified from DDM solubilized membranes (TALON, FPLC Superdex 200), reconstituted into liposomes; not shown: His6, N-terminal, kept
B5: E. coli MscL (EcoMscL) Q80C (natural protein, UniProt P0A742 1-136, looked up)
chain: B1 chain with C42M, Q80C
modifications: Alexa Fluor 488 and/or Alexa Fluor 568 maleimide on the introduced cysteine (stochastic labelling)
notes: as for B4
B6: E. coli MscL (EcoMscL) V82C (natural protein, UniProt P0A742 1-136, looked up)
chain: B1 chain with C42M, V82C
modifications: Alexa Fluor 488 and/or Alexa Fluor 568 maleimide on the introduced cysteine (stochastic labelling)
notes: as for B4

Biological target: the molecule itself
Experiment: FRET or BRET; single molecule FRET (TIRF) between one AF488 donor and one AF568 acceptor on the single cysteines of two subunits of one channel; channels in ~50 nm POPC liposomes with 2% BPE, immobilised on a coverslip by biotin-neutravidin; without and with 25% LPC

Protein | binding result
B1 | binds
B2 | binds
B3 | binds
B4 | binds
B5 | binds
B6 | binds
